Laboratory results as given in patent publication US20240117018A1.

Experiments:
Experiment in all cases: cell-based or functional assay
[1] = target: HIV-1 Env of pseudovirus HIV-0013095-2.11 (HIV-1)
[2] = target: HIV-1 Env of pseudovirus Ce704809221_1B3 (HIV-1)
[3] = target: HIV-1 Env of pseudovirus 246F C1G (HIV-1)
[4] = target: HIV-1 Env of pseudovirus SC05_8C11_2344 (HIV-1)
[5] = target: HIV-1 Env of pseudovirus ZM249M.PL1 (HIV-1)
[6] = target: HIV-1 Env of pseudovirus Ce2010_F5 (HIV-1)
[7] = target: HIV-1 Env of pseudovirus Q769.d22 (HIV-1)
[8] = target: HIV-1 Env of pseudovirus Ce1176_A3 (HIV-1)
[9] = target: HIV-1 Env of pseudovirus CNE30 (HIV-1)
[10] = target: HIV-1 Env of pseudovirus 6240_08_TA5_4622 (HIV-1)
[11] = target: HIV-1 Env of pseudovirus Du172.17 (HIV-1)
[12] = target: HIV-1 Env of pseudovirus CNE21 (HIV-1)
[13] = target: HIV-1 Env of pseudovirus Du422.1 (HIV-1)
[14] = target: HIV-1 Env of pseudovirus ZM197M.PB7 (HIV-1)
[15] = target: HIV-1 Env of pseudovirus MS208.A1 (HIV-1)
[16] = target: HIV-1 Env of pseudovirus CAAN5342.A2 (HIV-1)
[17] = target: HIV-1 Env of pseudovirus Du156.12 (HIV-1)
[18] = target: HIV-1 Env of pseudovirus HIV-16845-2.22 (HIV-1)
[19] = target: HIV-1 Env of pseudovirus Ce0393_C3 (HIV-1)
[20] = target: HIV-1 Env of pseudovirus PVO.4 (HIV-1)
[21] = target: HIV-1 Env of pseudovirus QH0692.42 (HIV-1)
[22] = target: HIV-1 Env of pseudovirus 1054_07_TC4_1499 (HIV-1)
[23] = target: HIV-1 Env of pseudovirus 62357_14_D3_4589 (HIV-1)
[24] = target: HIV-1 Env of pseudovirus 3365.v2.c2 (HIV-1)
[25] = target: HIV-1 Env of pseudovirus ZM109F.PB4 (HIV-1)
[26] = target: HIV-1 Env of pseudovirus HIV-16055-2.3 (HIV-1)
[27] = target: HIV-1 Env of pseudovirus Q259.d2.17 (HIV-1)
[28] = target: HIV-1 Env of pseudovirus CNE17 (HIV-1)
[29] = target: HIV-1 Env of pseudovirus BF1266.431a (HIV-1)
[30] = target: HIV-1 Env of pseudovirus 3415.v1.c1 (HIV-1)
[31] = target: HIV-1 Env of pseudovirus 1006_11_C3_1601 (HIV-1)
[32] = target: HIV-1 Env of pseudovirus CNE20 (HIV-1)
[33] = target: HIV-1 Env of pseudovirus ZM135M.PL10a (HIV-1)
[34] = target: HIV-1 Env of pseudovirus REJO4541.67 (HIV-1)
[35] = target: HIV-1 Env of pseudovirus TRO.11 (HIV-1)
[36] = target: HIV-1 Env of pseudovirus C2101.c01 (HIV-1)
[37] = target: HIV-1 Env of pseudovirus CNE5 (HIV-1)

3BNC117 (antibody)
IC50 [1]: 0.33 µg/mL
IC80 [1]: 2.53 µg/mL
IC50 [2]: 0.08 µg/mL
IC80 [2]: 0.31 µg/mL
IC50 [3]: 19.3 µg/mL
IC80 [3]: > 50 µg/mL
IC50 [4]: 0.15 µg/mL
IC80 [4]: 0.51 µg/mL
IC50 [5]: 0.03 µg/mL
IC80 [5]: 0.11 µg/mL
IC50 [6]: 0.05 µg/mL
IC80 [6]: 0.21 µg/mL
IC50 [7]: 0.01 µg/mL
IC80 [7]: 0.04 µg/mL
IC50 [8]: 0.22 µg/mL
IC80 [8]: 0.75 µg/mL
IC50 [9]: 0.26 µg/mL
IC80 [9]: 0.85 µg/mL
IC50 [10]: 0.33 µg/mL
IC80 [10]: 1.17 µg/mL
IC50 [11]: 1.19 µg/mL
IC80 [11]: 8.9 µg/mL
IC50 [12]: 45.4 µg/mL
IC80 [12]: > 50 µg/mL
IC50 [13]: > 50 µg/mL
IC80 [13]: > 50 µg/mL
IC50 [14]: 0.22 µg/mL
IC80 [14]: 1.03 µg/mL
IC50 [15]: 0.01 µg/mL
IC80 [15]: 0.09 µg/mL
IC50 [16]: 0.42 µg/mL
IC80 [16]: 1.51 µg/mL
IC50 [17]: 0.02 µg/mL
IC80 [17]: 0.08 µg/mL
IC50 [18]: 27.5 µg/mL
IC80 [18]: > 50 µg/mL
IC50 [19]: 0.2 µg/mL
IC80 [19]: 0.67 µg/mL
IC50 [20]: < 0.09 µg/mL
IC80 [20]: 0.19 µg/mL
IC50 [21]: 0.13 µg/mL
IC80 [21]: 0.49 µg/mL
IC50 [22]: 0.07 µg/mL
IC80 [22]: 0.49 µg/mL
IC50 [23]: 0.06 µg/mL
IC80 [23]: 0.26 µg/mL
IC50 [24]: 0.03 µg/mL
IC80 [24]: 0.1 µg/mL
IC50 [25]: 0.14 µg/mL
IC80 [25]: 0.88 µg/mL
IC50 [26]: 5.6 µg/mL
IC80 [26]: > 50 µg/mL
IC50 [27]: 0.01 µg/mL
IC80 [27]: 0.05 µg/mL
IC50 [28]: 5.76 µg/mL
IC80 [28]: 43 µg/mL
IC50 [29]: 0.03 µg/mL
IC80 [29]: 0.09 µg/mL
IC50 [30]: 0.17 µg/mL
IC80 [30]: 0.47 µg/mL
IC50 [31]: 0.03 µg/mL
IC80 [31]: 0.1 µg/mL
IC50 [32]: > 50 µg/mL
IC80 [32]: > 50 µg/mL
IC50 [33]: 0.03 µg/mL
IC80 [33]: 0.13 µg/mL
IC50 [34]: 0.01 µg/mL
IC80 [34]: 0.05 µg/mL
IC50 [35]: < 0.09 µg/mL
IC80 [35]: < 0.09 µg/mL

8ANC195 (antibody)
IC50 [1]: 0.32 µg/mL
IC80 [1]: 1.85 µg/mL
IC50 [2]: 0.48 µg/mL
IC80 [2]: 3.52 µg/mL
IC50 [3]: 12.8 µg/mL
IC80 [3]: > 50 µg/mL
IC50 [4]: 0.47 µg/mL
IC80 [4]: 3.06 µg/mL
IC50 [5]: > 50 µg/mL
IC80 [5]: > 50 µg/mL
IC50 [6]: > 50 µg/mL
IC80 [6]: > 50 µg/mL
IC50 [7]: 0.26 µg/mL
IC80 [7]: 1.2 µg/mL
IC50 [8]: 4.45 µg/mL
IC80 [8]: 35.2 µg/mL
IC50 [9]: 7.52 µg/mL
IC80 [9]: 40.5 µg/mL
IC50 [10]: > 50 µg/mL
IC80 [10]: > 50 µg/mL
IC50 [11]: > 30 µg/mL
IC80 [11]: > 30 µg/mL
IC50 [12]: 0.27 µg/mL
IC80 [12]: 1.52 µg/mL
IC50 [13]: > 50 µg/mL
IC80 [13]: > 50 µg/mL
IC50 [14]: 23.4 µg/mL
IC80 [14]: > 50 µg/mL
IC50 [15]: > 50 µg/mL
IC80 [15]: > 50 µg/mL
IC50 [16]: > 50 µg/mL
IC80 [16]: > 50 µg/mL
IC50 [17]: 0.22 µg/mL
IC80 [17]: 1.56 µg/mL
IC50 [18]: 3.3 µg/mL
IC80 [18]: 20.1 µg/mL
IC50 [19]: 6.77 µg/mL
IC80 [19]: > 50 µg/mL
IC50 [20]: 0.52 µg/mL
IC80 [20]: 1.87 µg/mL
IC50 [21]: 2.71 µg/mL
IC80 [21]: 17.1 µg/mL
IC50 [22]: 1.02 µg/mL
IC80 [22]: 6.75 µg/mL
IC50 [23]: > 50 µg/mL
IC80 [23]: > 50 µg/mL
IC50 [24]: > 30 µg/mL
IC80 [24]: > 30 µg/mL
IC50 [25]: > 30 µg/mL
IC80 [25]: > 30 µg/mL
IC50 [26]: 15.3 µg/mL
IC80 [26]: > 50 µg/mL
IC50 [27]: > 50 µg/mL
IC80 [27]: > 50 µg/mL
IC50 [28]: 2.59 µg/mL
IC80 [28]: 11.1 µg/mL
IC50 [29]: > 50 µg/mL
IC80 [29]: > 50 µg/mL
IC50 [30]: 17.7 µg/mL
IC80 [30]: 17.7 µg/mL
IC50 [31]: 0.43 µg/mL
IC80 [31]: 1.98 µg/mL
IC50 [32]: 0.5 µg/mL
IC80 [32]: 3.19 µg/mL
IC50 [33]: > 50 µg/mL
IC80 [33]: > 50 µg/mL
IC50 [34]: 0.08 µg/mL
IC80 [34]: 0.68 µg/mL
IC50 [35]: 0.18 µg/mL
IC80 [35]: 0.89 µg/mL

PG9 (antibody)
IC50 neutralization (TZM.bl) [36]: 0.034 µg/mL
IC80 neutralization (TZM.bl) [36]: 0.099 µg/mL
IC50 neutralization (TZM.bl) [37]: 0.018 µg/mL
IC80 neutralization (TZM.bl) [37]: 0.051 µg/mL
